Data as given in patent publication US7803749B2, “Peptide inhibitors of MKK7 kinase binding to insulin binding proteins” (Xigen SA, priority 2002, dated 2010).
“Also recorded” adds a separate entry of the source. Residues, ends and D or L forms follow the SMILES beside them.

Experiments:
[1] = tested on: developing rat cortical neurons; test: Incubation of developing rat cortical neurons with peptide (necrotic bodies, neuron number); conditions: 1 μM, vs control neurons, FIGS. 4A-4F
[2] = target: T1, MKK7 binding to IB1 (SH3 domain) (Homo sapiens, UniProt Q9UQF2); test: Pull-down of 35S-labelled MKK7 with GST-SH3 domain of IB1; conditions: FIG. 2
T1 construct: the SH3 domains of IB1 and IB2 were subcloned using PCR into the pGEX-4T1 vector in frame with the GST; made in house; host or cells: E. coli
T1 sequence (Q9UQF2 488-549 limits assumed): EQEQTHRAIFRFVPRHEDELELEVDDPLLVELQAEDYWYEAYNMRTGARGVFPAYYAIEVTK
Experimental: (§1) Effects of the αSH3 peptide on JNK biological activities were then studied. […] In the pull-down experiments, the SH3 domains of IB1 and IB2 were subcloned using PCR into the pGEX-4T1 vector in frame with the GST (Pharmacia). The recombinant proteins were produced in E. Coli. Purification was performed in native conditions using a glutathione-agarose column (Pharmacia). ^35S-labelled MKK7 was then used in classical pull-down experiments.

[3] = target: T2, MKK7 binding to IB2 (SH3 domain) (Homo sapiens, UniProt Q13387); test: Pull-down of 35S-labelled MKK7 with GST-SH3 domain of IB2; conditions: FIG. 2
T2 construct: the SH3 domains of IB1 and IB2 were subcloned using PCR into the pGEX-4T1 vector in frame with the GST; made in house; host or cells: E. coli
T2 sequence (Q13387 604-665 limits assumed): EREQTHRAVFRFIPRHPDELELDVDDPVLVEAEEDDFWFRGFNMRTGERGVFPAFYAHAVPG
Experimental: as §1

Blocking of the binding of MKK7 to IB1 [2]	Blocking of the binding of MKK7 to IB2 [3]	Compound	Toxicity on developing neurons (appearance of residual necrotic bodies) [1]
–	–	CSCC[C@H](NC(=O)CNC(=O)[C@@H](NC(=O)[C@H](CO)NC(=O)[C@@H](NC(=O)[C@H](CO)NC(=O)[C@H](CCCNC(=N)N)NC(=O)[C@H](CCCNC(=N)N)NC(=O)[C@H](CCCNC(=N)N)NC(=O)[C@H](CCC(N)=O)NC(=O)[C@H](CCCNC(=N)N)NC(=O)[C@H](CCCNC(=N)N)NC(=O)[C@H](CCCCN)NC(=O)[C@H](CCCCN)NC(=O)[C@@H](N)CCCNC(=N)N)C(C)C)C(C)C)C(=O)N1CCC[C@H]1C(=O)N1CCC[C@H]1C(=O)N[C@@H](CO)C(=O)N1CCC[C@H]1C(=O)N[C@@H](CCCNC(=N)N)C(=O)N1CCC[C@H]1C(=O)O [TAT-αSH3] (H-RKKRRQRRRSVSVGMPPSPRP-OH)	lacked residual necrotic bodies; also recorded: not toxic
efficiently blocks	efficiently blocks	αSH3: consensus αSH3 sequence SVSVGMPPSPRP, 12 aa	–
